Here are results for 12 molecules from patent US20230107890A1 (HOBER BIOTECH, published 2023).

Groups on a side chain read outwards from the residue. No end group written: not given here. *: point of attachment. DOTA = O=C(O)CN1CCN(CC(=O)O)CCN(CC(=O)*)CCN(CC(=O)O)CC1

What is called Kd is the concentration at which binding is half-saturated. A higher Kd goes with lower affinity.

Test [1] has as its target T1, Human Epidermal growth factor receptor 2 (HER2), immobilised on a CM5 chip (human, UniProt P04626 23-652, limits assumed). As to the kind of experiment: SPR, successive injections without regeneration, on HER2; concentrations not given.
The target of test [2] is T2, Murine Serum Albumin (MSA) (murine, UniProt P07724 25-608). As to the kind of experiment: SPR (Biacore T200), MSA immobilised on CM5 chip. As for the experimental part:
(§1) Target binding analysis was performed on a Biacore T200 system (GE Healthcare, Stockholm, Sweden) by injecting analytes over a CM5 chip immobilized with Murine Serum Albumin (MSA), Human Serum Albumin (HSA) and Human Epidermal growth factor receptor 2 (HER2) to a response level of […] each. Experimental parameters have been described previously (Garousi 2019).
On the technique in general: Surface plasmon resonance follows binding to a sensor surface in real time, without labels.

In test [3] the target is T3, Human Serum Albumin (HSA) (human, UniProt P02768 25-609). The test can be described thus: SPR (Biacore T200), HSA immobilised on CM5 chip. How it is done: as §1
T3 sequence (P02768 25-609 limits assumed): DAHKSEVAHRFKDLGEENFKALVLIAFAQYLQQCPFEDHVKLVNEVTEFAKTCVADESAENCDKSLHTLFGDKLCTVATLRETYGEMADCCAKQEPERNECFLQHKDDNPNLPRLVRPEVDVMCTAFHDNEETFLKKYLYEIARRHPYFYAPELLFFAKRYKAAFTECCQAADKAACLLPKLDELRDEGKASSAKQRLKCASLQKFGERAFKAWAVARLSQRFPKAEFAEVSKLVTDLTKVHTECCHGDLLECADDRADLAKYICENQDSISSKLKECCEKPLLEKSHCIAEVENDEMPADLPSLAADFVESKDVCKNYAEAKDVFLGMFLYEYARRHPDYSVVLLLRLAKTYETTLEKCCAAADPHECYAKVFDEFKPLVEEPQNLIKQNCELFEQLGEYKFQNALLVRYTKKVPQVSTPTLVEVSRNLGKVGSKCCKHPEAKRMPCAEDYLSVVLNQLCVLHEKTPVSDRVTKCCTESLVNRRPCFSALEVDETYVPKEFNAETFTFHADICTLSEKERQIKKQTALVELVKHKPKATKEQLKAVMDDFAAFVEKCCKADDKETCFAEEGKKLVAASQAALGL
In test [4] the target is T1, Human Epidermal growth factor receptor …. The test can be described thus: SPR (Biacore T200), HER2 immobilised on CM5 chip. How it is done:
as §1

In test [5] the target is T4, HER2 on living HER2-expressing cells (SKOV-3, BT-474) (human, UniProt P04626 23-1255).
T4 construct: whole, on cells; also called HER2 receptors in cells; HER2 on living cells
As to the kind of experiment: LigandTracer, living SKOV-3 cells; KD1 (stronger of two interactions). How it is done:
(§2) Cell-lines were purchased from American Type Culture Collection (ATCC, Manassas, Va.). […] The affinity of radiolabeled conjugates binding to living HER2-expressing SKOV-3 cells was determined using LigandTracer (Ridgeview Instruments AB) by an established method as described previously (Tolmachev 2014).

For test [6], the target named is T4, HER2 on living HER2-expressing cells …. The test can be described thus: LigandTracer, living SKOV-3 cells; KD2 (weaker of two interactions). How it is done:
as §2

The target in test [7] is T3, Human Serum Albumin (HSA). The test can be described thus: SPR, HSA immobilised on CM5 chip, analyte injected at 3.125-50 nM. How it is done: (§3) In the graphs of FIG. 4, the X axis represents time [s] and the Y axis represents Response Unit [RU].
as §1

Test [8] concerns the target T2, Murine Serum Albumin (MSA). As to the kind of experiment: SPR, MSA immobilised on CM5 chip, analyte injected at 3.125-50 nM. As for the experimental part:
as §3, §1

Test [9] has as its target T1, Human Epidermal growth factor receptor …. As to the kind of experiment: SPR, HER2 immobilised on CM5 chip, analyte 3.125-50 nM with 10x excess HSA. As for the experimental part:
as §3, §1

B1: MGDEAVDANS-ADAPTNeg-(SSSG)3-ABD035-GSSC (designed binder)
chain: MGDEAVDANSLAEAKVLANRELDKYGVADAYKNLINNAKTVEGVKARIDEILAALPSSSGSSSGSSSGLAEAKVLANRELDKYGVSDFYKRLINKAKTVEGVEALKLHILAALPGSSC
Regarding B1, in test [1], the binding result was “no binding”.

B2: MG-DEAVDANS-ADAPT6-(SSSG)5-ABD35-GSSC (designed binder)
chain: MGDEAVDANSLAAAKETALYHLDRLGVADAYKDLIDKAKTVEGVKARYFEILHALPSSSGSSSGSSSGSSSGSSSGLAEAKVLANRELDKYGVSDFYKRLINKAKTVEGVEALKLHILAALPGSSC
notes: also called ADAPT6-(SSSG)5-ABD035
Turning to B2, the results for the Kd in [2], in test [3] and in test [4] were 1.8 nM, 0.0538 nM and 4.45 nM, respectively.

B3: MG-DEAVDANS-ADAPT6-GSSC-DOTA-177Lu (designed binder)
chain: MGDEAVDANSLAAAKETALYHLDRLGVADAYKDLIDKAKTVEGVKARYFEILHALPGSSC([maleimide-DOTA])
modifications: also: 177Lu chelated by DOTA
For B3, the values for the Kd in [5] and in [6] were 0.337 nM and 41 nM, respectively.

B4: MG-DEAVDANS-ADAPT6-GSSC (designed binder)
chain: MGDEAVDANSLAAAKETALYHLDRLGVADAYKDLIDKAKTVEGVKARYFEILHALPGSSC
notes: also called non-fused ADAPT6; unfused control
In the case of B4, the binding result in test [7] is on record as “no binding (tested: 50 nM)”; in [8] it was “no binding (tested: 50 nM)”; in [9], “binds”.

B5: MG-DEAVDANS-ADAPT6-GSSC-HPEM-125I (designed binder)
chain: MGDEAVDANSLAAAKETALYHLDRLGVADAYKDLIDKAKTVEGVKARYFEILHALPGSSC
modifications: C-terminal cysteine coupled to 125I-labelled ((4-hydroxyphenyl)ethyl)maleimide (HPEM)
notes: Radioiodinated form of the non-fused control
For B5, the Kd is 0.41 nM in test [5] and 27 nM in test [6].

B6: MG-DEAVDANS-ABD035-(SSSG)3-ADAPT6-GSSC-HPEM-125I (designed binder)
chain: MGDEAVDANSLAEAKVLANRELDKYGVSDFYKRLINKAKTVEGVEALKLHILAALPSSSGSSSGSSSGLAAAKETALYHLDRLGVADAYKDLIDKAKTVEGVKARYFEILHALPGSSC
modifications: C-terminal cysteine coupled to 125I-labelled ((4-hydroxyphenyl)ethyl)maleimide (HPEM)
Regarding B6, the Kd came to 0.15 nM in test [5] and 28 nM in [6].

B7: MG-DEAVDANS-ABD035-(SSSG)3-ADAPT6-GSSC-DOTA-177Lu (designed binder)
chain: MGDEAVDANSLAEAKVLANRELDKYGVSDFYKRLINKAKTVEGVEALKLHILAALPSSSGSSSGSSSGLAAAKETALYHLDRLGVADAYKDLIDKAKTVEGVKARYFEILHALPGSSC
modifications: C-terminal cysteine coupled to maleimide-DOTA chelating 177Lu
In the case of B7, the values for the Kd in test [5] and in test [6] were 0.432 nM and 38 nM, respectively.

B8: MG-DEAVDANS-ABD035-(SSSG)3-ADAPT6-GSSC (designed binder)
chain: MGDEAVDANSLAEAKVLANRELDKYGVSDFYKRLINKAKTVEGVEALKLHILAALPSSSGSSSGSSSGLAAAKETALYHLDRLGVADAYKDLIDKAKTVEGVKARYFEILHALPGSSC
notes: also called ABD035-ADAPT6
B8: the Kd is 1.83 nM in [2], 0.0521 nM in test [3] and 5.2 nM in test [4].

B9: MG-DEAVDANS-ABD35-(SSSG)5-ADAPT6-GSSC (designed binder)
chain: MGDEAVDANSLAEAKVLANRELDKYGVSDFYKRLINKAKTVEGVEALKLHILAALPSSSGSSSGSSSGSSSGSSSGLAAAKETALYHLDRLGVADAYKDLIDKAKTVEGVKARYFEILHALPGSSC
notes: also called ABD035-(SSSG)5-ADAPT6
Take B9: the Kd in [3] is 0.052 nM; in test [4], 4.32 nM.

B10: MG-DEAVDANS-ADAPT6-(SSSG)3-ABD035-GSSC (designed binder)
chain: MGDEAVDANSLAAAKETALYHLDRLGVADAYKDLIDKAKTVEGVKARYFEILHALPSSSGSSSGSSSGLAEAKVLANRELDKYGVSDFYKRLINKAKTVEGVEALKLHILAALPGSSC
Take B10: the Kd in test [2] was found to be 1.76 nM; in test [3], 0.0498 nM; in test [4], 4.67 nM.

B11: MG-DEAVDANS-ADAPT6-(SSSG)3-ABD035-GSSC-HPEM-125I (designed binder)
chain: MGDEAVDANSLAAAKETALYHLDRLGVADAYKDLIDKAKTVEGVKARYFEILHALPSSSGSSSGSSSGLAEAKVLANRELDKYGVSDFYKRLINKAKTVEGVEALKLHILAALPGSSC
modifications: C-terminal cysteine coupled to 125I-labelled ((4-hydroxyphenyl)ethyl)maleimide (HPEM)
notes: also called Inventive 2
Regarding B11, the results for the Kd in test [5] and in test [6] were 0.6 nM and 36 nM, respectively.

B12: MG-DEAVDANS-ADAPT6-(SSSG)3-ABD035-GSSC-DOTA-177Lu (designed binder)
chain: MGDEAVDANSLAAAKETALYHLDRLGVADAYKDLIDKAKTVEGVKARYFEILHALPSSSGSSSGSSSGLAEAKVLANRELDKYGVSDFYKRLINKAKTVEGVEALKLHILAALPGSSC
modifications: C-terminal cysteine coupled to maleimide-DOTA chelating 177Lu
notes: also called Inventive 1
In the case of B12, the results for the equilibrium dissociation constant (Kd) in [5] and in [6] were 0.485 nM and 33 nM, respectively.
